Experimental data taken from patent US8722856B2, “Anti-MUC1 antibody” (National University Corporation Hokkaido University, priority 2008, dated 2014).

Legend:
[1] = test system: human breast cancer cell strains (T-47D)
Experimental: Antibody-dependant cytotoxicity was analyzed by a chromium release test. Human peripheral mononuclear cell (PBMC) was separated from peripheral blood of a healthy person using Ficoll-paque PLUS (manufactured by GE Healthcare) according to the package insert. DMEM containing 10% FCS was added to the separated PBMC so that the number became 4×10^6/ml.
50 μl of physiological saline containing 1.85 MBq ^51Cr (manufactured by Perkin Elmer) was added to 200 μl of DMEM containing 1×10^6 human breast cancer cell strains (T-47D) and human mammary gland epithelial cell strains (184A1) and the reaction was allowed to proceed at 37° C. for 1 hour. Thereafter, cells were washed with 10 ml of DMEM three times, and DMEM was added to 5×10^4 cells/ml. […] Thereafter, 100 μl of PBMC was added and the reaction was allowed to proceed at 37° C. for 2 hours. Thereafter, the plate was centrifuged at 500×g for 5 minutes at room temperature and γ-ray of 100 μl of the supernatant was measured with ARC-7001 (manufactured by Aloka). Antibody-specific cytotoxicity (%) was obtained using the following calculation equation. Cytotoxicity(%)=(experimental value−natural release)/(maximum release−natural release)×100

[2] = target: T1, dST(DT*R)-20 (Compound No. 11) (Homo sapiens, UniProt P15941); test: Sugar chain specificity, competitive ELISA against Biotin-Tn(DT*R)-100; format: binding; details: glycopeptide dST (Compound No. 11)
T1 construct: Synthesis of MUC1 Tn20-mer Glycopeptide; made in house; host or cells: chemical solid-phase synthesis with enzymatic sialylation
T1 sequence (P15941 136-155): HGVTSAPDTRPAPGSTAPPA
Experimental: (§1) Such specificity can be expressed by a difference in cross reactivity. The cross reactivity is obtained by a calculation equation of (IC50 for cancer-associated structure 2,3ST/IC50 for sugar chain structure to be compared)×100(%). As used herein, inclusion of specificity refers to a difference of 2 fold or more.
(§2) Ten days after cell fusion, screening of a specific antibody-producing cell was performed. ELISA was used in screening is as follows. To each well of a 384-well microtiter plate (manufactured by Nunc) 35 μl of a Tris buffer (50 mM Tris-HCl, pH 7.5) containing 0.35 μg of an anti-mouse IgG antibody (manufactured by Shibayagi Co., Ltd.) was added to immobilize the antibody at 4° C. for 16 hours. After these wells were washed with 90 μl of a washing solution (physiological saline containing 0.01% Tween 20) once, 200 μl of BLOCK ACE (manufactured by Dainippon Sumitomo Pharma Co., Ltd.) was added, and this was allowed to stand at room temperature for 2 hours for blocking (an anti-mouse IgG antibody solid-phased plate). After each well was washed with 90 μl of a washing solution once, 10 μl of a hybridoma culture supernatant, 10 μl of a buffer A (50 mM Tris buffer containing 0.5% bovine serum albumin, 0.01% Tween 80, 0.05% Proclin 150, and 0.15 M. NaCl, pH 7.4), and 10 μl of a buffer A containing 0.01 ng of Biotin-2,3-ST(DT*R)-20 (Compound No. 16 of Table 1) and 2 ng of Streptavidin-HRP (manufactured by PIERCE) were added to perform a reaction at 4° C. for 16 hours. Then, after each well was washed with 90 μl of a washing solution three times, 25 μl of TMB+-Substrate-Chromogen (manufactured by DAKO) was added to develop a color at room temperature for 30 minutes, 25 μl of 0.05 M sulfuric acid was added to stop the reaction, and absorbance was measured at 450 nm. […] Using a mouse monoclonal antibody isotyping ELISA kit (manufactured by BD Bioscience), a subclass of the antibody was determined and, as a result, an isotype of 1B2 was IgG2a.
(§3) Fifteen (15) μl of a buffer A containing a MUC1 antibody was added to an anti-mouse IgG antibody solid-phased plate and the reaction was allowed to proceed at room temperature for 3 hours. […] Then, after each well was washed with 90 μl of a washing solution three times, 15 μl of TMB+-Substrate-Chromogen (manufactured by DAKO) was added to develop a color at room temperature for 30 minutes, 15 μl of 0.05 M sulfuric acid was added to stop the reaction, and absorbance at 450 nm was measured.

[3] = target: T2, 2,3ST6L(DT*R)-20 (Compound No. 7) (Homo sapiens, UniProt P15941); test: as above; format: binding; details: glycopeptide 2,3ST6L (Compound No. 7)
T2 construct: Synthesis of MUC1 Tn20-mer Glycopeptide; made in house; host or cells: chemical solid-phase synthesis (Compound 5), then enzymatic sugar extension
Experimental: as §1, §2, §3

[4] = target: T3, 40 (Compound No. 13), non-glycosylated (Homo sapiens, UniProt P15941); test: as above; format: binding; details: Non-glycosylated peptide (Compound No. 13)
T3 construct: made in house; host or cells: chemical solid-phase synthesis
T3 sequence (P15941 136-175): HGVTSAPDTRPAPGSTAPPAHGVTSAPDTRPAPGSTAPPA
Experimental: as §1, §2, §3

[5] = target: T4, Tn(DT*R)-20 (Compound No. 3) (Homo sapiens, UniProt P15941); test: as above; format: binding; details: glycopeptide Tn (Compound No. 3)
T4 construct: Synthesis of MUC1 Tn20-mer Glycopeptide; made in house; host or cells: chemical solid-phase synthesis
Experimental: as §1, §2, §3

[6] = target: T5, 2,3-ST(DT*R)-20 (Compound No. 2) (Homo sapiens, UniProt P15941); test: as above; format: binding; details: glycopeptide 2,3-ST (Compound No. 2), reference = 100%
T5 construct: Synthesis of MUC1 Tn20-mer Glycopeptide; made in house; host or cells: chemical solid-phase synthesis, then enzymatic sialylation
Experimental: as §1, §2, §3

[7] = target: T6, ST2-6(DT*R)-20 (Compound No. 10) (Homo sapiens, UniProt P15941); test: as above; format: binding; details: glycopeptide ST2-6 (Compound No. 10)
T6 construct: Synthesis of MUC1 Tn20-mer Glycopeptide; made in house; host or cells: chemical solid-phase synthesis
Experimental: as §1, §2, §3

[8] = target: T7, 2,3-ST6SL(DT*R)-20 (Compound No. 8) (Homo sapiens, UniProt P15941); test: as above; format: binding; details: glycopeptide 2,3ST6SL (Compound No. 8)
T7 construct: Synthesis of MUC1 Tn20-mer Glycopeptide; made in house; host or cells: chemical solid-phase synthesis (Compound 5), then enzymatic sugar extension
Experimental: as §1, §2, §3

[9] = target: T8, STn(DT*R)-20 (Compound No. 4) (Homo sapiens, UniProt P15941); test: as above; format: binding; details: glycopeptide STn (Compound No. 4)
T8 construct: Synthesis of MUC1 Tn20-mer Glycopeptide; made in house; host or cells: chemical solid-phase synthesis
Experimental: as §1, §2, §3

[10] = target: T9, 2,3ST6G(DT*R)-20 (Compound No. 6) (Homo sapiens, UniProt P15941); test: as above; format: binding; details: glycopeptide 2,3ST6G (Compound No. 6)
T9 construct: Synthesis of MUC1 Tn20-mer Glycopeptide; made in house; host or cells: chemical solid-phase synthesis (Compound 5), then enzymatic sialylation
Experimental: as §1, §2, §3

[11] = target: T10, T(DT*R)-20 (Compound No. 1) (Homo sapiens, UniProt P15941); test: as above; format: binding; details: glycopeptide T (Compound No. 1)
T10 construct: Synthesis of MUC1 Tn20-mer Glycopeptide; made in house; host or cells: chemical solid-phase synthesis
Experimental: as §1, §2, §3

[12] = target: T11, C6(DT*R)-20 (Compound No. 9) (Homo sapiens, UniProt P15941); test: as above; format: binding; details: glycopeptide C6 (Compound No. 9)
T11 construct: Synthesis of MUC1 Tn20-mer Glycopeptide; made in house; host or cells: chemical solid-phase synthesis
Experimental: as §1, §2, §3

[13] = target: T12, 2,3-ST(VT*S)-20 (Compound No. 12) (Homo sapiens, UniProt P15941); test: as above; format: binding; details: glycopeptide 2,3ST(VT*S) (Compound No. 12)
T12 construct: Synthesis of MUC1 Tn20-mer Glycopeptide; made in house; host or cells: chemical solid-phase synthesis with enzymatic sialylation
Experimental: as §1, §2, §3

[14] = test system: biotin-labeled T-47D culture supernatant; test: Affinity of antibody, Biacore, sensor chip SA; format: binding, human; details: biotin-labeled T-47D culture supernatant solid-phased
Experimental: In addition, a human breast cancer cultured cell strain T-47D (ATCC Number HTB-133) was cultured on a Dulbecco's modified Eagle medium (DMEM; manufacture by Invitrogen), the supernatant was concentrated with Amicon ultra-100 (manufactured by MILLIPORE), and substituted with a 20 mM HEPES buffer (pH 7.6) containing 0.15 M NaCl. Sulfo-NHS-Biotin (manufactured by PIERCE) was added to 200 μl of the T-47D culture supernatant, followed by reaction on ice for 2 hours. Thereafter, substitution with a 20 mM Tris buffer (pH 7.6) containing 0.15 M NaCl was performed with a PD-10 column (manufactured by GE Healthcare) to obtain a biotin-labeled T-47D culture supernatant.

B1: 1B2: mouse monoclonal anti-MUC1 antibody, isotype IgG2a, clone from immunization with 2,3-ST(DT*R)-20 conjugated to BSA (antibody, V domains shown)
VH: MEWIWIFLFILSGTAGVQSQVQLQQSGAELARPGASVKLSCKASGYTFTNYGLSWVKQRTGQGLEWIGENHPGSGIIYHNEKFRGKATLTADKSSSTAYVQLSSLTSEDSAVYFCARSSGTRGFAYWGQGTLVTVSA
VL: MKLPVRLLVLMFWIPASSSDVLMTQTPLSLPVSLGDQASISCRSSQSIVHSNGNTYLEWYLQKPGQSPKLLIYKVSNRFSGVPDRFSGSGSGTDFTLKISRVEAEDLGVYYCFQGSHGPWTFGGGTKLEIKRA
modifications: Antibody 1B2 VH sequence; Antibody 1B2 VL sequence
[1]
  Antibody-specific cytotoxicity: about 15%
[2]
  Cross reactivity letting 2,3-ST to be 100%: 3.0%
[3]
  Cross reactivity letting 2,3-ST to be 100%: 0.063%
[4]
  Cross reactivity letting 2,3-ST to be 100%: 0.13%
[5]
  Cross reactivity letting 2,3-ST to be 100%: 81%
[6]
  Cross reactivity letting 2,3-ST to be 100%: 100%
[7]
  Cross reactivity letting 2,3-ST to be 100%: 0.15%
[8]
  Cross reactivity letting 2,3-ST to be 100%: 0.064%
[9]
  Cross reactivity letting 2,3-ST to be 100%: 0.36%
[10]
  Cross reactivity letting 2,3-ST to be 100%: 0.061%
[11]
  Cross reactivity letting 2,3-ST to be 100%: 96%
[12]
  Cross reactivity letting 2,3-ST to be 100%: 0.75%
[13]
  Cross reactivity letting 2,3-ST to be 100%: <0.030%
[14]
  Kd1: 0.0012 s⁻¹
  ka1: 470000 M⁻¹ s⁻¹
[14]; read-out: dissociation constant KD
  Kd: 2.6 nM
